This is an account of results in paper PMC12208539, “PPIL2 is a target of the JAK2/STAT5 pathway and promotes myeloproliferation via degradation of p53” (The Journal of Clinical Investigation, 2025).

In the test the target is T1, recombinant His-p53 (UniProt P04637 1-393).
T1 construct: p53 from pET15b-p53 (Addgene plasmid 24859); also called pET15b-p53; source: recombinant, pET15b-p53 (Addgene)
Briefly: pull-down; GST pulldown: 100 μg recombinant GST-PPIL2 protein with 100 μg recombinant His-p53 and MagneGST glutathione beads overnight at 4°C; washes with TENT buffer (1% Triton X-100, 140 mM NaCl, 2 mM EDTA, 20 mM Tris pH 8.0). To be noted: both partners purified.

T1 sequence (P04637 whole entry): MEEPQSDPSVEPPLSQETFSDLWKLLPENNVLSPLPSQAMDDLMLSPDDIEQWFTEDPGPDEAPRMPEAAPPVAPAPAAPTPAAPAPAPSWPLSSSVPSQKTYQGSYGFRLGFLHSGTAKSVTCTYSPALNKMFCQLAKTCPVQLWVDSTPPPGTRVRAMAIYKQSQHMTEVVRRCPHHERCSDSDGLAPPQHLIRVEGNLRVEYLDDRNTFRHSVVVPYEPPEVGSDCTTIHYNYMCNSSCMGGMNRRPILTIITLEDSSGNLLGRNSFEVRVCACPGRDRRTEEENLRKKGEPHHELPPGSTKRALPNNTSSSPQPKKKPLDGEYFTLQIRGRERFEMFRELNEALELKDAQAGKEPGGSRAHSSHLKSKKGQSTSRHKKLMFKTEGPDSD

B1: recombinant GST-PPIL2-U-box (domain or fragment, UniProt Q13356 1-190, looked up)
chain: MGKRQHQKDKMYITCAEYTHFYGGKKPDLPQTNFRRLPFDHCSLSLQPFVYPVCTPDGIVFDLLNIVPWLKKYGTNPSNGEKLDGRSLIKLNFSKNSEGKYHCPVLFTVFTNNTHIVAVRTTGNVYAYEAVEQLNIKAKNFRDLLTDEPFSRQDIITLQDPTNLDKFNVSNFYHVKNNMKIIDPDEEKAK
notes: peptidylprolyl isomerase-like 2 (PPIL2), U-box domain construct, residues 1-190; the tie of 1-190 to the U-box goes by the order of the list; also called GST-PPIL2 (1-190); U-box domain of PPIL2; source: recombinant, prokaryotic expression vector pGEX6p-3
On to B1, for which the binding result is “binds”.
